Assay results from the supplement of paper PMC7877785.
± gives the uncertainty stated by the source.

Test: self-splicing fitness, log relative to wild type (ln ratio); higher = more splicing; Tetrahymena group I intron in knt gene, E. coli kanamycin selection, DiMSum; sequences stand for … in CUCUCU…GGAGGGAAAAGUUAUCAGGCAUGCACCUGGUAGCUAGUCUUUAAACCAAUAGAUUGCAUCGGUUUAAAAGGCAAGACCGUCAAAUUGCGGGAAAGGGGUCAACAGCCGUUCAGUACCAAGUCUCAGGGGAAACUUUGAGAUGGCCUUGCAAAGGGUAUGGUAAUAAGCUGACGGACAUGGUCCUAACCACGCAGCCAAGUCCUAAGUCAACAGAUCUUCUGUUGAUAUGGAUGCAGUUCACAGACUAAAUGUCGGUCGGGGAAGAUGUAUUCUUCUCAUAAGAUAUAGUCGGACCUCUCCUUAAUGGGAGCUAGCGGAUGAAGUGAUGCAACACUGGAGCCGCUGGGAACUAAUUUGUAUGCGAAAGUAUAUUGAUUAGUUUUGGAGUACUCGUGGUCG
Procedure, shortened: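 DiMSum derived fitness as the error-weighted combination of fold changes across replicates, kanamycin versus no kanamycin, normalised to wild type. E. coli BL21(DE3) held the library, which randomised all eight P1ex-region intron nucleotides within the knt kanamycin-resistance gene on pET-22b(+). Six replicate transformations grew overnight at 37°C or 30°C on LB agar with or without 25 μg/mL kanamycin, also containing 100 μg/mL carbenicillin, 50 μM IPTG and 0.2% rhamnose, and pooled colonies were amplicon-sequenced on an Illumina HiSeq 2500.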

Sequence	self-splicing fitness (ln) (30 °C)	self-splicing fitness (ln) (37 °C)
AUGUAGCAAUAUUACGCCGA	-2.44 ± 0.2	-0.724 ± 0.16
AUGUAGCAAUAUUACGCCUU	-0.114 ± 0.1	-0.413 ± 0.13
AUGUAGCAAUAUUACGCGUC	-2.6 ± 0.22	-2.32 ± 0.3
AUGUAGCAAUAUUACGCUAC	-3.14 ± 0.34	-2.59 ± 0.34
AUGUAGCAAUAUUACGCUAG	-1.61 ± 0.21	-0.5 ± 0.22
AUGUAGCAAUAUUACGCUAU	-3.81 ± 0.23	-2.6 ± 0.23
AUGUAGCAAUAUUACGGAUU	-1.57 ± 0.092	-0.598 ± 0.091
AUGUAGCAAUAUUACGGCCC	-0.72 ± 0.34	-0.359 ± 0.25
AUGUAGCAAUAUUACGGGCA	-0.222 ± 0.11	0.141 ± 0.1
AUGUAGCAAUAUUACGGUCG	-1.44 ± 0.12	-1.59 ± 0.17
AUGUAGCAAUAUUACGUAUG	-3.84 ± 0.29	-3.16 ± 0.28
AUUAAGCAAUAUUACGAACG	-1.59 ± 0.18	-0.243 ± 0.15
AUUAAGCAAUAUUACGAAGG	-3.82 ± 0.4	-2.5 ± 0.44
AUUAAGCAAUAUUACGAAGU	-2.77 ± 0.22	-0.565 ± 0.21
AUUAAGCAAUAUUACGACAU	0.191 ± 0.012	0.193 ± 0.032
AUUAAGCAAUAUUACGACCG	-1.51 ± 0.1	-0.619 ± 0.16
AUUAAGCAAUAUUACGAGAG	-2.61 ± 0.24	-1.83 ± 0.27
AUUAAGCAAUAUUACGAGUG	-2.42 ± 0.1	-2.37 ± 0.14
AUUAAGCAAUAUUACGAUGC	-2.09 ± 0.15	-1.86 ± 0.17
AUUAAGCAAUAUUACGCACU	-0.21 ± 0.13	-0.414 ± 0.13
AUUAAGCAAUAUUACGCAUU	-2.35 ± 0.14	-0.664 ± 0.13
AUUAAGCAAUAUUACGCUAC	-2.45 ± 0.43	-3.4 ± 0.35
AUUAAGCAAUAUUACGCUCA	-0.292 ± 0.068	-0.258 ± 0.091
AUUAAGCAAUAUUACGGAUU	-2.03 ± 0.12	-0.791 ± 0.15
AUUAAGCAAUAUUACGGCGG	-1.18 ± 0.16	-0.145 ± 0.18

Sequence	self-splicing fitness (ln) (30 °C)	self-splicing fitness (ln) (37 °C)
AUUAAGCAAUAUUACGGGCU	-1.31 ± 0.13	-1.47 ± 0.17
AUUAAGCAAUAUUACGGGUC	-2.81 ± 0.21	-3.49 ± 0.37
AUUAAGCAAUAUUACGGUCG	-1.59 ± 0.11	-0.942 ± 0.12
AUUAAGCAAUAUUACGUAAU	-1.66 ± 0.11	-0.745 ± 0.14
AUUAAGCAAUAUUACGUAUA	-1.48 ± 0.16	-1.35 ± 0.14
AUUAAGCAAUAUUACGUCGG	-2.34 ± 0.18	-1.2 ± 0.22
AUUAAGCAAUAUUACGUUAU	-1.22 ± 0.097	-1.1 ± 0.15
AUUAAGCAAUAUUACGUUUC	-3.77 ± 0.35	-1.65 ± 0.26
AUUAAGCAAUAUUACGUUUU	-2.27 ± 0.11	-1.81 ± 0.12
AUUCAGCAAUAUUACGAAGA	-0.761 ± 0.13	-0.747 ± 0.12
AUUCAGCAAUAUUACGAAGU	-1.52 ± 0.11	-0.236 ± 0.12
AUUCAGCAAUAUUACGAGGA	-2.81 ± 0.32	-1.63 ± 0.16
AUUCAGCAAUAUUACGAUCG	-1.87 ± 0.1	-1.5 ± 0.12
AUUCAGCAAUAUUACGAUGC	-1.27 ± 0.11	0.0653 ± 0.13
AUUCAGCAAUAUUACGCAAA	-1.04 ± 0.14	-0.821 ± 0.16
AUUCAGCAAUAUUACGCAAC	-2.05 ± 0.18	-0.188 ± 0.17
AUUCAGCAAUAUUACGCACA	-0.671 ± 0.096	-0.192 ± 0.1
AUUCAGCAAUAUUACGCACC	-0.502 ± 0.1	0.457 ± 0.12
AUUCAGCAAUAUUACGCAGG	-1.26 ± 0.12	-0.594 ± 0.16
AUUCAGCAAUAUUACGCGAU	-3.46 ± 0.18	-3.23 ± 0.26
AUUCAGCAAUAUUACGCUCC	-0.31 ± 0.073	0.274 ± 0.096
AUUCAGCAAUAUUACGGAAG	-1.02 ± 0.096	-0.0127 ± 0.11
AUUCAGCAAUAUUACGGAGU	-4.52 ± 0.34	-2.3 ± 0.23
AUUCAGCAAUAUUACGGAUU	-4.2 ± 0.22	-2.21 ± 0.2
AUUCAGCAAUAUUACGGCAC	-0.847 ± 0.074	-0.407 ± 0.096

Sequence	self-splicing fitness (ln) (30 °C)	self-splicing fitness (ln) (37 °C)
AUUCAGCAAUAUUACGGCAG	-1.14 ± 0.11	-0.688 ± 0.14
AUUCAGCAAUAUUACGGGGA	-1.93 ± 0.094	-0.802 ± 0.083
AUUCAGCAAUAUUACGGGGG	-2.77 ± 0.15	-2.14 ± 0.16
AUUCAGCAAUAUUACGGGGU	-3.78 ± 0.39	-2.85 ± 0.26
AUUCAGCAAUAUUACGGUGG	-3.09 ± 0.15	-1.58 ± 0.14
AUUCAGCAAUAUUACGUCGC	-2.74 ± 0.099	-1.86 ± 0.11
AUUCAGCAAUAUUACGUCUU	-0.0261 ± 0.083	0.411 ± 0.089
AUUCAGCAAUAUUACGUGCG	-0.448 ± 0.095	-0.262 ± 0.13
AUUCAGCAAUAUUACGUGGU	-3 ± 0.12	-0.786 ± 0.099
AUUCAGCAAUAUUACGUUCG	-0.646 ± 0.06	-0.898 ± 0.094
AUUGAGCAAUAUUACGACGU	-0.46 ± 0.12	-0.115 ± 0.13
AUUGAGCAAUAUUACGACUG	–	-0.882 ± 0.25
AUUGAGCAAUAUUACGAUGC	-1.58 ± 0.38	–
AUUGAGCAAUAUUACGAUGG	-2.84 ± 0.25	–
AUUGAGCAAUAUUACGAUUG	-3.62 ± 0.3	-3.11 ± 0.26
AUUGAGCAAUAUUACGCGCC	-1.62 ± 0.48	–
AUUGAGCAAUAUUACGCUCA	–	-1.62 ± 0.4
AUUGAGCAAUAUUACGCUUG	-2.91 ± 0.18	-0.989 ± 0.18
AUUGAGCAAUAUUACGGAAU	-1.59 ± 0.17	-1.28 ± 0.2
AUUGAGCAAUAUUACGGAUG	-3.43 ± 0.28	-2.69 ± 0.38
AUUGAGCAAUAUUACGGCGA	-1.96 ± 0.16	-0.878 ± 0.15
AUUGAGCAAUAUUACGGCUG	-1.83 ± 0.14	-1.81 ± 0.17
AUUGAGCAAUAUUACGGGCA	-2.81 ± 0.23	-2.3 ± 0.29
AUUGAGCAAUAUUACGGUAC	–	-1.72 ± 0.31
AUUGAGCAAUAUUACGGUCA	-2.13 ± 0.19	-0.756 ± 0.13

Sequence	self-splicing fitness (ln) (30 °C)	self-splicing fitness (ln) (37 °C)
AUUGAGCAAUAUUACGUAAU	-1.68 ± 0.13	-0.364 ± 0.19
AUUGAGCAAUAUUACGUCAA	-3.05 ± 0.26	-2.6 ± 0.28
AUUGAGCAAUAUUACGUGCU	-3.03 ± 0.24	-3.17 ± 0.35
AUUGAGCAAUAUUACGUGUC	-4.77 ± 0.26	-2.53 ± 0.15
AUUUAGCAAUAUUACGAACG	-0.287 ± 0.16	-0.464 ± 0.29
AUUUAGCAAUAUUACGACCG	-1.54 ± 0.24	-0.522 ± 0.23
AUUUAGCAAUAUUACGAGCG	-2.66 ± 0.23	-1.05 ± 0.2
AUUUAGCAAUAUUACGAUGG	-2.89 ± 0.34	–
AUUUAGCAAUAUUACGCAGG	-3.36 ± 0.38	–
AUUUAGCAAUAUUACGCCGA	-1.94 ± 0.28	-1.09 ± 0.23
AUUUAGCAAUAUUACGCUAA	-2.13 ± 0.23	-1.3 ± 0.31
AUUUAGCAAUAUUACGGAGG	-2.53 ± 0.19	-2.06 ± 0.27
AUUUAGCAAUAUUACGGCCG	-1.29 ± 0.15	-1.6 ± 0.15
AUUUAGCAAUAUUACGGUUA	-0.84 ± 0.16	-0.183 ± 0.13
AUUUAGCAAUAUUACGGUUU	-1.02 ± 0.096	-0.0857 ± 0.12
AUUUAGCAAUAUUACGUAAA	-2.28 ± 0.21	-1.09 ± 0.18
AUUUAGCAAUAUUACGUCAC	-3.2 ± 0.37	-1.42 ± 0.32
AUUUAGCAAUAUUACGUCCU	-0.237 ± 0.16	0.18 ± 0.23
AUUUAGCAAUAUUACGUGAU	-0.978 ± 0.12	-0.863 ± 0.12
AUUUAGCAAUAUUACGUGUA	-2.42 ± 0.23	-1.5 ± 0.17
AUUUAGCAAUAUUACGUGUU	-1.73 ± 0.14	0.39 ± 0.14
CAAAAGCAAUAUUACGAAAG	-0.791 ± 0.077	-0.705 ± 0.097
